T1: TTC7B (from the E. coli dimers) (UniProt Q86TV6 1-843)
T1 sequence: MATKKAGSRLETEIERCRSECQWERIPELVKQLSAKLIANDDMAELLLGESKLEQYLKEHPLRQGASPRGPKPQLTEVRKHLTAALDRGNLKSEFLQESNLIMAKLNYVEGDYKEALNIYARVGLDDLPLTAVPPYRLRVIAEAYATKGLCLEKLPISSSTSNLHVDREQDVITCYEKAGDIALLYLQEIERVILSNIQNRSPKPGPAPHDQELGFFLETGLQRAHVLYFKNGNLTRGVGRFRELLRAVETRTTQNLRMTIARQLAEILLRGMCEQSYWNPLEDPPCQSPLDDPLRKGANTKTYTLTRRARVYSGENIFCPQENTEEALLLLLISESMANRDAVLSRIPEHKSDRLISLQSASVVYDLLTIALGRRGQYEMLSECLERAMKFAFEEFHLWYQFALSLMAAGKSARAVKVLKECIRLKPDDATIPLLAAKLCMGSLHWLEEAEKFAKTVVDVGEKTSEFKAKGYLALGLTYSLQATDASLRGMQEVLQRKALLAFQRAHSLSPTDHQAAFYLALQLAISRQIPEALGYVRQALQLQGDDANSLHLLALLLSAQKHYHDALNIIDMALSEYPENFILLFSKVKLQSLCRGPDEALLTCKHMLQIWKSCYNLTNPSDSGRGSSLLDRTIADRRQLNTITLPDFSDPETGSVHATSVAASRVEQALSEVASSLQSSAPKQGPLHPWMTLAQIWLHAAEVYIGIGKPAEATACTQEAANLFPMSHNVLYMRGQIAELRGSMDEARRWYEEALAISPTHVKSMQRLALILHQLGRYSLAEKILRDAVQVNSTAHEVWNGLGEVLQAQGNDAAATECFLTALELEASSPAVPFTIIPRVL

B1: TTC7B (from the Sf9 PI4KA complex) (natural protein)
chain: T1 sequence
B2: His-tagged MBP-EFR3A (721–791) (domain or fragment)
chain: SNTEEITFEALKKAIDTSGMEEQEKEKRRLVIEKFQKAPFEEIAAQCESKANLLHDRLAQILELTIRPPPS
B3: FAM126A (1–308) (from the Sf9 complexes) (domain or fragment)
chain: MFTSEKGVVEEWLSEFKTLPETSLPNYATNLKDKSSLVSSLYKVIQEPQSELLEPVCHQLFEFYRSGEEQLLQFTLQFLPELIWCYLAVSASRNVHSSGCIEALLLGVYNLEIVDKQGHTKVLSFTIPSLSKPSVYHEPSSIGSMALTESALSQHGLSKVVYSGPHPQREMLTAQNRFEVLTFLLLCYNAALTYMPSVSLQSLCQICSRICVCGYPRQHVRKYKGISSRIPVSSGFMVQMLTGIYFAFYNGEWDLAQKALDDIIYRAQLELYPEPLLVANAIKASLPHGPMKSNKEGTRCIQVEITPT
B4: FAM126B (1–308) (from the E. coli dimer) (domain or fragment)
chain: MLGTDRCVVEEWLSEFKALPDTQITSYAATLHRKKTLVPALYKVIQDSNNELLEPVCHQLFELYRSSEVRLKRFTLQFLPELMWVYLRLTVSRDRQSNGCIEALLLGIYNLEIADKDGNNKVLSFTIPSLSKPSIYHEPSTIGSMALTEGALCQHDLIRVVYSDLHPQRETFTAQNRFEVLSFLMLCYNSAIVYMPASSYQSLCRMGSRVCVSGFPRQHEKHWKELCGRIVLDPEFMVQLLTGVYYAMYNGQWDLGQEVLDDIIYRAQLELFSQPLLVANAMKNSLPFDAPDSTQEGQKVLKVEVTPT
B5: FAM126B (1–308) (from the Sf9 dimer) (domain or fragment)
chain: B4 chain
B6: TTC7A (natural protein)
chain: MAAKGAHGSYLKVESELERCRAEGHWDRMPELVRQLQTLSMPGGGGNRRGSPSAAFTFPDTDDFGKLLLAEALLEQCLKENHAKIKDSMPLLEKNEPKMSEAKNYLSSILNHGRLSPQYMCEAMLILGKLHYVEGSYRDAISMYARAGIDDMSMENKPLYQMRLLSEAFVIKGLSLERLPNSIASRFRLTEREEEVITCFERASWIAQVFLQELEKTTNNSTSRHLKGCHPLDYELTYFLEAALQSAYVKNLKKGNIVKGMRELREVLRTVETKATQNFKVMAAKHLAGVLLHSLSEECYWSPLSHPLPEFMGKEESSFATQALRKPHLYEGDNLYCPKDNIEEALLLLLISESMATRDVVLSRVPEQEEDRTVSLQNAAAIYDLLSITLGRRGQYVMLSECLERAMKFAFGEFHLWYQVALSMVACGKSAYAVSLLRECVKLRPSDPTVPLMAAKVCIGSLRWLEEAEHFAMMVISLGEEAGEFLPKGYLALGLTYSLQATDATLKSKQDELHRKALQTLERAQQLAPSDPQVILYVSLQLALVRQISSAMEQLQEALKVRKDDAHALHLLALLFSAQKHHQHALDVVNMAITEHPENFNLMFTKVKLEQVLKGPEEALVTCRQVLRLWQTLYSFSQLGGLEKDGSFGEGLTMKKQSGMHLTLPDAHDADSGSRRASSIAASRLEEAMSELTMPSSVLKQGPMQLWTTLEQIWLQAAELFMEQQHLKEAGFCIQEAAGLFPTSHSVLYMRGRLAEVKGNLEEAKQLYKEALTVNPDGVRIMHSLGLMLSRLGHKSLAQKVLRDAVERQSTCHEAWQGLGEVLQAQGQNEAAVDCFLTALELEASSPVLPFSIIPREL
B7: His-tagged MBP-EFR3B (716–787) (domain or fragment)
chain: VPAEEITYETLKKAIVDSVAVEEQERERRRQVVEKFQKAPFEEIAAHCGARASLLQSKLNQIFEITIRPPPS

Experiments:
PI4KA [1] = target: T2, PI4KA (UniProt P42356 1-2102); test: cryo-EM structure
[2] = target: PI4KA-TTC7A-FAM126A (1–308) complex (UniProt P42356;Q9ULT0;Q9BYI3); test: BLI
[3] = target: TTC7B-FAM126A (1–308) heterodimer (UniProt Q86TV6;Q9BYI3); test: BLI
[4] = target: TTC7B-FAM126B (1–308) heterodimer (UniProt Q86TV6;Q8IXS8); test: BLI
[5] = target: TTC7A-FAM126A (1–308) heterodimer (UniProt Q9ULT0;Q9BYI3); test: BLI
[6] = target: TTC7A-FAM126B (1–308) heterodimer (UniProt Q9ULT0;Q8IXS8); test: BLI
[7] = target: PI4KA-TTC7B-FAM126A (1–308) complex (UniProt P42356;Q86TV6;Q9BYI3); test: BLI
TTC7A = target: B6; test: SEC
[8] = target: T1, TTC7B (from the E. coli dimers); test: SEC
PI4KA [9] = target: T2, PI4KA; test: SEC

B1
binding result (PI4KA [1]): binds

B2
Kd [2]: 0.34 ± 0.13 nM | Kd [3]: 0.041 ± 0.025 nM | Kd [4]: ~0.3 nM | Kd [5]: ~0.3 nM | Kd [6]: ~0.3 nM | Kd [7]: 0.043 ± 0.014 nM

B3
binding result (TTC7A): binds

B4
binding result [8]: binds

B5
binding result (TTC7A): binds

B6
binding result (PI4KA [9]): binds

B7
Kd [3]: ~0.3 nM | Kd [4]: ~0.3 nM | binding result [5]: binds | binding result [6]: binds

— publication PMC12747262 (bioRxiv, 2025)
